From article PMC1802561 (Nucleic Acids Research, 2006)

Key:
YoeB (native, untagged) = molecular target: T1, YoeB (native, untagged) (Escherichia coli, UniProt P69348 1-84); test: EMSA
T1 sequence: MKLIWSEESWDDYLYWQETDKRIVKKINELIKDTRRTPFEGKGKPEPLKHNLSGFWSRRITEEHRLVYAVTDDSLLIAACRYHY

YoeB-His6 [1] = molecular target: T2, YoeB-His6 (Escherichia coli, UniProt P69348 1-84); test: EMSA
T2 sequence: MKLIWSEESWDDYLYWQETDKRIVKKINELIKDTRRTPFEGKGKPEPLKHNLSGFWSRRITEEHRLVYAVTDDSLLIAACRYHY

YefM-His6 = molecular target: T3, YefM-His6 (Escherichia coli, UniProt P69346 1-83); test: EMSA
T3 sequence: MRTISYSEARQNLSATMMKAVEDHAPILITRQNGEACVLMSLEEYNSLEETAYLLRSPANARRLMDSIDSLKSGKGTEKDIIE

His10-YefM = molecular target: T4, His10-YefM (Escherichia coli, UniProt P69346 1-83); test: EMSA
T4 sequence: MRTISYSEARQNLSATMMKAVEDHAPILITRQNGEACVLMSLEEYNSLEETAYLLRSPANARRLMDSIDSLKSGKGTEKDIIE

[2] = molecular target: T5, YefM (native, intein-cleaved) (Escherichia coli, UniProt P69346 1-83); test: EMSA
T5 sequence: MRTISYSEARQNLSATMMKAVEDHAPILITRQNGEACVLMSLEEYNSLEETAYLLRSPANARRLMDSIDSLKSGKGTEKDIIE

[3] = molecular target: T6, YefM (native, intein-cleaved);YoeB (native, untagged) (Escherichia coli;Escherichia coli, UniProt P69346;P69348 1-83;1-84, |); test: EMSA
T6 sequence 1: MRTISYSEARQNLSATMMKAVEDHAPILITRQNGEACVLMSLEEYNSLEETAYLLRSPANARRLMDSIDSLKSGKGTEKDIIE
T6 sequence 2: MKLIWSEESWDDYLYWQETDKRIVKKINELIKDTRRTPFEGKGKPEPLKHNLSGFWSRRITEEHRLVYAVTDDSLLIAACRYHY

cross-linking = molecular target: the molecule itself; test: cross-linking
native YoeB = molecular target: T7, native YoeB (Escherichia coli, UniProt P69348 1-84); test: native gel or EMSA
T7 sequence: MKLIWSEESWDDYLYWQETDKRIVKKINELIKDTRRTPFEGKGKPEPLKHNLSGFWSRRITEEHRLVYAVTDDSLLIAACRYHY

YoeB-His6 [4] = molecular target: T8, YoeB-His6 (Escherichia coli, UniProt P69348 1-84); test: cross-linking
T8 sequence: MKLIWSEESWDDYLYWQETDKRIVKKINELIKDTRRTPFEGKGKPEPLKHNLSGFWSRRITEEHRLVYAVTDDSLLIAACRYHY

B1: 99 bp yefM-yoeB promoter-operator (oligos 1/2) (dsDNA)
DNA 1: GTCGAGAATTCTCTACAAACTAATTAATAAATAGTTAATTAACGCTCATCATTGTACAATGAACTGTACAAAAGAGGAGATTGACATGGGATCCAGTGC
DNA 2: GCACTGGATCCCATGTCAATCTCCTCTTTTGTACAGTTCATTGTACAATGATGAGCGTTAATTAACTATTTATTAATTAGTTTGTAGAGAATTCTCGAC
B1: no binding (YoeB (native, untagged)); no binding (YoeB-His6 [1]); binds (YefM-His6). B1: binds (His10-YefM); binds [2]; binds [3].

B2: native YefM (natural protein)
chain: MRTISYSEARQNLSATMMKAVEDHAPILITRQNGEACVLMSLEEYNSLEETAYLLRSPANARRLMDSIDSLKSGKGTEKDIIE
B2 was tested, and the “stoichiometry N” value (cross-linking) was 2 and the binding result (native YoeB) was “binds”.

B3: YefM of the YefM–YoeB–His6 complex (natural protein)
chain: MRTISYSEARQNLSATMMKAVEDHAPILITRQNGEACVLMSLEEYNSLEETAYLLRSPANARRLMDSIDSLKSGKGTEKDIIE
For B3, the binding result (YoeB-His6 [4]) was “binds” and the “stoichiometry N” value (cross-linking) was 2.
